One block for each binder: values may come before it.
What was measured:
MukF FN2 (E. coli) [1] = experiment: SEC-MALS; Superose 6 10/300 GL or Superose 12 10/300; 50 mM HEPES pH 7.5, 100 mM NaCl, 1 mM DTT, 1 mM EDTA; 20 °C; mixtures at stated monomer:dimer molar ratios; some runs with 1 mM ATP
MukF FC2 (E. coli) = details: scale: % of the maximal ATPase obtained with MukF
MukF FN2 (E. coli) [2] = biological target: MukF FN2 (E. coli)
[3] = biological target: fluorescently labelled FN2, FN10, FN3 and FC2 (E. coli); experiment: fluorescence correlation spectroscopy (FCS) + fluorescence polarisation; range of Kds told for the four Cy5-labelled MukF fragments together (FN2, FN10 by FCS; FN3, FC2 by FPA); MukB titrated

stoichiometry N (MukF FN2 (E. coli) [1]): 2
B1: MukF FN2 (domain or fragment)
chain: MSEFSQTVPELVAWARKNDFSISLPVDRLSFLLAVATLNGERLDGEMSEGELVDAFRHVSDAFEQTSETIGVRANNAINDMVRQRLLNRFTSEQAEGNAIYRLTPLGIGITDYYIRQREFSTLRLSMQLSIVAGELKRAADAAEEGGDEFHWHRNVYAPLKYSVAEIFDSIDLTQRLMDEQQQQVKDDIAQLLNKDWRAAISSCELLLSETSGTLRELQDTLEAAGDKLQANLLRIQDATMTHDDLHFVDRLVFDLQSKLDRIISWGQQSIDLWIGYDRHVHKFIRT
modifications: not checked

MukB ATPase (steady state, phosphate release) with saturating FC2 at a 2.5-fold molar excess, against MukF (MukF FC2 (E. coli)): 60
MukB ATPase (steady state, phosphate release) with saturating FN2 at a 2.5-fold molar excess, against MukF (% of maximum ATPase) (MukF FN2 (E. coli) [2]): 33
Kd [3]: 9 to 26 nM
B2: MukB (natural protein)
chain: MIERGKFRSLTLINWNGFFARTFDLDELVTTLSGGNGAGKSTTMAAFVTALIPDLTLLHFRNTTEAGATSGSRDKGLHGKLKAGVCYSMLDTINSRHQRVVVGVRLQQVAGRDRKVDIKPFAIQGLPMSVQPTQLVTETLNERQARVLPLNELKDKLEAMEGVQFKQFNSITDYHSLMFDLGIIARRLRSASDRSKFYRLIEASLYGGISSAITRSLRDYLLPENSGVRKAFQDMEAALRENRMTLEAIRVTQSDRDLFKHLISEATNYVAADYMRHANERRVHLDKALEFRRELHTSRQQLAAEQYKHVDMARELAEHNGAEGDLEADYQAASDHLNLVQTALRQQEKIERYEADLDELQIRLEEQNEVVAEAIERQQENEARAEAAELEVDELKSQLADYQQALDVQQTRAIQYNQAIAALNRAKELCHLPDLTADCAAEWLETFQAKELEATEKMLSLEQKMSMAQTAHSQFEQAYQLVVAINGPLARNEAWDVARELLREGVDQRHLAEQVQPLRMRLSELEQRLREQQEAERLLADFCKRQGKNFDIDELEALHQELEARIASLSDSVSNAREERMALRQEQEQLQSRIQSLMQRAPVWLAAQNSLNQLSEQCGEEFTSSQDVTEYLQQLLEREREAIVERDEVGARKNAVDEEIERLSQPGGSEDQRLNALAERFGGVLLSEIYDDVSLEDAPYFSALYGPSRHAIVVPDLSQVTEHLEGLTDCPEDLYLIEGDPQSFDDSVFSVDELEKAVVVKIADRQWRYSRFPEVPLFGRAARESRIESLHAEREVLSERFATLSFDVQKTQRLHQAFSRFIGSHLAVAFESDPEAEIRQLNSRRVELERALSNHENDNQQQRIQFEQAKEGVTALNRILPRLNLLADDSLADRVDEIRERLDEAQEAARFVQQFGNQLAKLEPIVSVLQSDPEQFEQLKEDYAYSQQMQRDARQQAFALTEVVQRRAHFSYSDSAEMLSGNSDLNEKLRERLEQAEAERTRAREALRGHAAQLSQYNQVLASLKSSYDTKKELLNDLQRELQDIGVRADSGAEERARIRRDELHAQLSNNRSRRNQLEKALTFCEAEMDNLTRKLRKLERDYFEMREQVVTAKAGWCAVMRMVKDNGVERRLHRRELAYLSADDLRSMSDKALGALRLAVADNEHLRDVLRMSEDPKRPERKIQFFVAVYQHLRERIRQDIIRTDDPVEAIEQMEIELSRLTEELTSREQKLAISSRSVANIIRKTIQREQNRIRMLNQGLQNVSFGQVNSVRLNVNVRETHAMLLDVLSEQHEQHQDLFNSNRLTFSEALAKLYQRLNPQIDMGQRTPQTIGEELLDYRNYLEMEVEVNRGSDGWLRAESGALSTGEAIGTGMSILVMVVQSWEDESRRLRGKDISPCRLLFLDEAARLDARSIATLFELCERLQMQLIIAAPENISPEKGTTYKLVRKVFQNTEHVHVVGLRGFAPQLPETLPGTDEAPSQAS

Source: PMC5812716
